According to patent publication US20150344570A1 (published 2015):

T1: FcgRIIaR (human, UniProt P12318 34-217)
T1 construct: extracellular domain; also called FcγRIIa R; FcγRIIa type R; not shown: His tag at the C terminus
T1 sequence (looked up): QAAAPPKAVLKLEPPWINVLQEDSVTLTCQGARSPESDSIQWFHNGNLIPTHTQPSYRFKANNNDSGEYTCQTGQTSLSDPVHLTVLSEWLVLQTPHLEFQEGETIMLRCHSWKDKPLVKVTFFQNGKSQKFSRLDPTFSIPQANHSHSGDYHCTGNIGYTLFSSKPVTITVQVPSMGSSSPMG

T2: FcgRIIb (human, UniProt P31994 43-217)
T2 construct: extracellular domain; also called FcγRIIb; 2b; not shown: His tag at the C terminus
T2 sequence (looked up): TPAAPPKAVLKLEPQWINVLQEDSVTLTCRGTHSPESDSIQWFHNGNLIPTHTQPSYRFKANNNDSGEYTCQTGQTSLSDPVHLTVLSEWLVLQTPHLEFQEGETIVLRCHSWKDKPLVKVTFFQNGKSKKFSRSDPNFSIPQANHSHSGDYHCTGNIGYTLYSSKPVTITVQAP

T3: FcgRIIaH (human, UniProt P12318 34-217)
T3 construct: extracellular domain; also called FcγRIIa H; FcγRIIa type H; not shown: His tag at the C terminus
T3 sequence (looked up): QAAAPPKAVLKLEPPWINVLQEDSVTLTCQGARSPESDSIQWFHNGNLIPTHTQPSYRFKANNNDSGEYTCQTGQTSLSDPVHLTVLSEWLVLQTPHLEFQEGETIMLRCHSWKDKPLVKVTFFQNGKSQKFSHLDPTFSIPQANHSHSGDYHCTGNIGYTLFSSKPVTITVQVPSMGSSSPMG


Key:
[1] = biological target: T4, FcgRIIIaV (human, UniProt P08637 17-208); experiment: SPR (Biacore); KD of H240-Kn033/H240-Hl033/L73-k0 divided by KD of the variant
T4 construct: extracellular domain; Polymorphic site after J. Clin. Invest; also called FcγRIIIa V; 3aV; not shown: His tag at the C terminus
T4 sequence (P08637 17-208 F176V limits assumed): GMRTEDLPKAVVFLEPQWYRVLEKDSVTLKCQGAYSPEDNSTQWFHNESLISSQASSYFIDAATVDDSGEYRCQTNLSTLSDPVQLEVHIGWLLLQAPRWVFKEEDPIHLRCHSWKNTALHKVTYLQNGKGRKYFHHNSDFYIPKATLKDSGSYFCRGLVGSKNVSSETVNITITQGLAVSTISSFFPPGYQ

[2] = biological target: T5, FcgRIIIaF (human, UniProt P08637 17-208); experiment: as above
T5 construct: extracellular domain; Polymorphic site after J. Clin. Invest; also called FcγRIIIa F; 3aF; not shown: His tag at the C terminus
T5 sequence (P08637 17-208): as the sequence (P08637 17-208 F176V limits assumed) above, with V160F counted along it

[3] = biological target: T1, FcgRIIaR; experiment: as above
[4] = biological target: T2, FcgRIIb; experiment: as above
[5] = biological target: T3, FcgRIIaH; experiment: as above
[6] = biological target: T4, FcgRIIIaV; experiment: SPR (Biacore), antibody captured, FcgR extracellular domain as analyte
Description: (§1) Next, the amino acid at position 330 was examined. The A330M alteration has been introduced into H240-Hl076 of H240-Kn125/H240-Hl076/L73-k0. […] L73-k0 was used as the common antibody L chain. Binding of the produced variants to FcgRIa, FcgRIIaR, FcgRIIaH, FcgRIIb, FcgRIIIaF, and FcgRIIIaV was measured according to the method of Reference Example 8.
(§2) Analysis of interaction between objective antibody and the FcγR was carried out using Biacore T100 (GE Healthcare), Biacore T200, Biacore A100, and Biacore 4000. HBS-EP+ (GE Healthcare) was used as the running buffer, and the measurement temperature was set to 25° C. Chips produced by immobilizing the antigen peptide by the amine coupling method to a Series S sensor Chip CM5 (GE Healthcare), chips produced by allowing preliminarily biotinylated antigen peptides to interact with and immobilize onto a Series S Sensor Chip SA (certified) (GE Healthcare), chips produced by immobilizing Protein L (ACTIGEN, BioVision) to Series S Sencor Chip CM5 (GE Healthcare), or chips produced by immobilizing Protein A/G (Thermo Scientific) to Series S Sencor Chip CM5 (GE Healthcare) were used. Antibodies of interest were captured onto these chips, and allowed to interact to each FcγR diluted with running buffer. To regenerate and repeatedly use the chip, the antibodies captured onto the chip were washed off by reacting 10 mM glycine-HCl, pH 1.5.

[7] = biological target: T5, FcgRIIIaF; experiment: as above
Description: as §1, §2

[8] = biological target: T1, FcgRIIaR; experiment: as above
Description: as §1, §2

[9] = biological target: T6, FcgRIa (human, UniProt P12314 16-292); experiment: as above
T6 construct: extracellular domain; also called FcγRIa; FcγRI; not shown: His tag at the C terminus
T6 sequence (P12314 16-292): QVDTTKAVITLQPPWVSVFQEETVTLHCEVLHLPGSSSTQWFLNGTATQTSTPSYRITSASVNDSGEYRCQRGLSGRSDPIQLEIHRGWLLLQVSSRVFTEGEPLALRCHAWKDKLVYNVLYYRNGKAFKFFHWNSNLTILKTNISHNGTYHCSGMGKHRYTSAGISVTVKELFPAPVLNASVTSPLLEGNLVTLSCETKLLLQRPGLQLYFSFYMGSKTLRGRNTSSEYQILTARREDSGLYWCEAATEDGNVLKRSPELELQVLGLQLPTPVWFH
Description: as §1, §2

[10] = biological target: T2, FcgRIIb; experiment: as above
Description: as §1, §2

[11] = biological target: T3, FcgRIIaH; experiment: as above
Description: as §1, §2

fold 3aV [1]	fold 3aF [2]	fold 2aR [3]	fold 2b [4]	fold 2aH [5]	Kd [6]	Kd [7]	Kd [8]	Kd [9]	Kd [10]	Kd [11]	Binder
80 fold	107 fold	1 fold	0.4 fold	2.5 fold	0.6 nM	2.7 nM	770 nM	0.073 nM	8300 nM	210 nM	H240-Kn125/H240-Hl216/L73-k0 (antibody, human IgG1, kappa) heavy 1: QDQLVQSGAEVKKPGASVKVSCKASGFNIKDTYIQWVRQAPGQGLEWMGRIDPLRKQTKYREKFEGRVTITADTSTNTAYMELSSLRSEDTAVYYCVRSGREFDYWGQGTLVTVSSASTKGPSVFPLAPSSKSTSGGTAALGCLVKDYFPEPVTVSWNSGALTSGVHTFPAVLQSSGLYSLSSVVTVPSSSLGTQTYICNVNHKPSNTKVDKKVEPKSCDKTHTCPPCPAPEYQWGPMVFLFPPKPKDTLMISRTPEVTCVVVDVSDEEPEVKFNWYVDGVEVHNAKTKPREEQYNATYRVVSVLTVLHQDWLNGKEYKCKVSNKALPAPIEKTISKAKGQPREPQVCTLPPSRDELTKNQVSLWCLVKGFYPSDIAVEWESNGQPENNYKTTPPVLDSDGSFFLYSKLTVDKSRWQQGNVFSCSVMHEALHNHYTQKSLSLSP heavy 2: QDQLVQSGAEVKKPGASVKVSCKASGFNIKDTYIQWVRQAPGQGLEWMGRIDPLRKQTKYREKFEGRVTITADTSTNTAYMELSSLRSEDTAVYYCVRSGREFDYWGQGTLVTVSSASTKGPSVFPLAPSSKSTSGGTAALGCLVKDYFPEPVTVSWNSGALTSGVHTFPAVLQSSGLYSLSSVVTVPSSSLGTQTYICNVNHKPSNTKVDKKVEPKSCDKTHTCPPCPAPELLGGPSVFLFPPKPKDTLMISRTPEVTCVVVDVSHEEPEVKFNWYVDGVEVHNAKTKPREEQYNSTYRVVSVLTVLHQDWLNGKEYKCKVSNDALPIPIEETISKAKGQPREPQVYTLPPSRCELTKNQVSLSCAVKGFYPSDIAVEWESNGQPENNYKTTPPVLDSDGSFFLVSKLTVDKSRWQQGNVFSCSVMHEALHNHYTQKSLSLSP light: DIQMTQSPSSLSASVGDRVTITCRASQDIHKYIAWYQQKPGQAPRLLIQYTSTLQPGVPSRFSGSGSGTDYTFTISSLQPEDIATYYCLQYEQLRTFGGGTKVEIKRTVAAPSVFIFPPSDEQLKSGTASVVCLLNNFYPREAKVQWKVDNALQSGNSQESVTEQDSKDSTYSLSSTLTLSKADYEKHKVYACEVTHQGLSSPVTKSFNRGEC
146 fold	121 fold	1.7 fold	0.9 fold	4 fold	0.33 nM	2.4 nM	440 nM	0.076 nM	3500 nM	130 nM	H240-Kn125/H240-Hl217/L73-k0 (antibody, human IgG1, kappa) heavy 1: QDQLVQSGAEVKKPGASVKVSCKASGFNIKDTYIQWVRQAPGQGLEWMGRIDPLRKQTKYREKFEGRVTITADTSTNTAYMELSSLRSEDTAVYYCVRSGREFDYWGQGTLVTVSSASTKGPSVFPLAPSSKSTSGGTAALGCLVKDYFPEPVTVSWNSGALTSGVHTFPAVLQSSGLYSLSSVVTVPSSSLGTQTYICNVNHKPSNTKVDKKVEPKSCDKTHTCPPCPAPEYQWGPMVFLFPPKPKDTLMISRTPEVTCVVVDVSDEEPEVKFNWYVDGVEVHNAKTKPREEQYNATYRVVSVLTVLHQDWLNGKEYKCKVSNKALPAPIEKTISKAKGQPREPQVCTLPPSRDELTKNQVSLWCLVKGFYPSDIAVEWESNGQPENNYKTTPPVLDSDGSFFLYSKLTVDKSRWQQGNVFSCSVMHEALHNHYTQKSLSLSP heavy 2: QDQLVQSGAEVKKPGASVKVSCKASGFNIKDTYIQWVRQAPGQGLEWMGRIDPLRKQTKYREKFEGRVTITADTSTNTAYMELSSLRSEDTAVYYCVRSGREFDYWGQGTLVTVSSASTKGPSVFPLAPSSKSTSGGTAALGCLVKDYFPEPVTVSWNSGALTSGVHTFPAVLQSSGLYSLSSVVTVPSSSLGTQTYICNVNHKPSNTKVDKKVEPKSCDKTHTCPPCPAPELLGGPSVFLFPPKPKDTLMISRTPEVTCVVVDVSHEEPEVKFNWYVDGVEVHNAKTKPREEQYNSTYRVVSVLTVLHQDWLNGKEYKCKVSNDALPYPIEETISKAKGQPREPQVYTLPPSRCELTKNQVSLSCAVKGFYPSDIAVEWESNGQPENNYKTTPPVLDSDGSFFLVSKLTVDKSRWQQGNVFSCSVMHEALHNHYTQKSLSLSP light: DIQMTQSPSSLSASVGDRVTITCRASQDIHKYIAWYQQKPGQAPRLLIQYTSTLQPGVPSRFSGSGSGTDYTFTISSLQPEDIATYYCLQYEQLRTFGGGTKVEIKRTVAAPSVFIFPPSDEQLKSGTASVVCLLNNFYPREAKVQWKVDNALQSGNSQESVTEQDSKDSTYSLSSTLTLSKADYEKHKVYACEVTHQGLSSPVTKSFNRGEC
70.6 fold	112 fold	2.4 fold	1.1 fold	4.7 fold	0.68 nM	2.6 nM	310 nM	0.092 nM	2900 nM	110 nM	H240-Kn125/H240-Hl218/L73-k0 (antibody, human IgG1, kappa) heavy 1: QDQLVQSGAEVKKPGASVKVSCKASGFNIKDTYIQWVRQAPGQGLEWMGRIDPLRKQTKYREKFEGRVTITADTSTNTAYMELSSLRSEDTAVYYCVRSGREFDYWGQGTLVTVSSASTKGPSVFPLAPSSKSTSGGTAALGCLVKDYFPEPVTVSWNSGALTSGVHTFPAVLQSSGLYSLSSVVTVPSSSLGTQTYICNVNHKPSNTKVDKKVEPKSCDKTHTCPPCPAPEYQWGPMVFLFPPKPKDTLMISRTPEVTCVVVDVSDEEPEVKFNWYVDGVEVHNAKTKPREEQYNATYRVVSVLTVLHQDWLNGKEYKCKVSNKALPAPIEKTISKAKGQPREPQVCTLPPSRDELTKNQVSLWCLVKGFYPSDIAVEWESNGQPENNYKTTPPVLDSDGSFFLYSKLTVDKSRWQQGNVFSCSVMHEALHNHYTQKSLSLSP heavy 2: QDQLVQSGAEVKKPGASVKVSCKASGFNIKDTYIQWVRQAPGQGLEWMGRIDPLRKQTKYREKFEGRVTITADTSTNTAYMELSSLRSEDTAVYYCVRSGREFDYWGQGTLVTVSSASTKGPSVFPLAPSSKSTSGGTAALGCLVKDYFPEPVTVSWNSGALTSGVHTFPAVLQSSGLYSLSSVVTVPSSSLGTQTYICNVNHKPSNTKVDKKVEPKSCDKTHTCPPCPAPELLGGPSVFLFPPKPKDTLMISRTPEVTCVVVDVSHEEPEVKFNWYVDGVEVHNAKTKPREEQYNSTYRVVSVLTVLHQDWLNGKEYKCKVSNDALPHPIEETISKAKGQPREPQVYTLPPSRCELTKNQVSLSCAVKGFYPSDIAVEWESNGQPENNYKTTPPVLDSDGSFFLVSKLTVDKSRWQQGNVFSCSVMHEALHNHYTQKSLSLSP light: DIQMTQSPSSLSASVGDRVTITCRASQDIHKYIAWYQQKPGQAPRLLIQYTSTLQPGVPSRFSGSGSGTDYTFTISSLQPEDIATYYCLQYEQLRTFGGGTKVEIKRTVAAPSVFIFPPSDEQLKSGTASVVCLLNNFYPREAKVQWKVDNALQSGNSQESVTEQDSKDSTYSLSSTLTLSKADYEKHKVYACEVTHQGLSSPVTKSFNRGEC
